Experiments:
[1] = target: VEGFR2 (Homo sapiens, UniProt P35968); conditions: cell-free assays; cited from earlier work
[2] = system: hiPSC chondrogenic pellets; assay: Immunohistochemistry of collagens in pellets; format: cell-based, human; conditions: pellet culture
Protocol: (§1) WNT ligands treatment during chondrogenesis. For WNT ligands treatment during chondrogenesis, pellets were treated with either 10 ng ml^−1 TGF-β3 (control group) or a combination of 10 ng ml^−1 TGF-β3 and 100 ng ml^−1 individual WNT ligand (WNT2B, WNT3A, WNT4, WNT5B, or WNT7B, all from R&D system) in chondrogenic medium from d0 to d42 as appropriate. For WNT ligands treatment during the Cp stage, cells were supplemented with either 20 ng ml^−1 BMP4 (R&D Systems, #314-BP-010) alone (control group), a combination of 20 ng ml^−1 BMP4 and 1 μM WNT-059, or a combination of 20 ng ml^−1 BMP4 and 100 ng ml^−1 WNT3A (R&D Systems, #5036-WN-010) in mesodermal differentiation medium from d7 to d12.
Immunohistochemistry. Histologic sections (8 μm thick) of the pellets were rinsed with xylenes three times and rehydrated before labeling. Antigen retrieval was performed with 0.02% proteinase K for 3 min at 37° C. for COL2A1 and COL6A1 and with pepsin for 5 min at room temperature for COL1A1 and COL10A1 followed by peroxidase quench then serum blocking for 30 min at room temperature. […]

[3] = system: hiPSC chondrogenic pellets; assay: Biochemical analysis of cartilaginous matrix production (GAG/DNA) in hiPSC chondrogenic pellets; format: cell-based, human; conditions: 100 ng/ml WNT ligand + TGF-β3 vs TGF-β3 only
Protocol: Chondrogenic differentiation. Cells dissociated at the Cp stage were resuspended at 5×10^5 cells per mL in chondrogenic medium consisting of DMEM/F-12, 1% FBS, 1% ITS+, 55 μM β-mertcaptoethanol, 100 nM dexamethasone (DEX; Sigma-Aldrich, #D4902), 1% NEAA (Gibco, #11140050), 1% P/S, 10 ng ml^−1 human transforming growth factor-beta 3 (TGF-β3; R&D Systems, #243-B3-010), 50 μg ml^−1 L-ascorbic acid 2-phosphate (ascorbate; Sigma-Aldrich, #A8960), and 40 μg ml^−1 L-Proline (proline; Sigma-Aldrich, #P5607). Cells were then centrifuged for 5 min at 300×g to form a pellet. Chondrogenic pellets were cultured at 37° C. for up to the timepoints required for various experiments.
WNT-C59 and ML329 treatment for WNT and MITF inhibition. For WNT-C59 treatment for WNT inhibition during chondrogenesis, pellets were treated with either 10 ng ml^−1 TGF-β3 (control group) or a combination of 10 ng ml^−1 TGF-β3 and 1 μM WNT-C59 in a chondrogenic medium from d0 to d42 as appropriate. […]
Biochemical analysis of cartilaginous matrix production. […] GAG content, as calculated based on the standard curve, was normalized to double-stranded DNA content to obtain the GAG/DNA ratio.

[4] = system: hiPSC chondrogenic pellets; assay: RT-qPCR of pellets treated with WNT ligands; format: cell-based, human
Protocol: as §1
RT-qPCR. RNA of the pellets was isolated using the Total RNA Purification Kit according to the manufacture's protocol (Norgen Biotek, #37500). Reverse transcription of the RNA was performed using SuperScript VILO Master Mix (Thermo Fisher, #11755050). Fast SYBR Green Master Mix (Thermo Fisher, #4385614) was used for reverse transcription-quantitative polymerase chain reaction (RT-qPCR) according to the manufacturer's instructions on the QuantStudio 3 (Thermo Fisher). Gene expression was analyzed using the ΔΔCT method relative to undifferentiated hiPSCs with the reference gene TATA-box-binding protein (TBP).

[5] = system: CD146/CD166+ cells at the Cp stage; assay: FACS for progenitors at the Cp stage; format: cell-based, human; conditions: with BMP4, 1 μM WNT-C59 or 100 ng/ml WNT3A
Protocol: as §1
FACS for progenitors. […] Data were analyzed using FlowJo software (version 10.5.3).

VEGFR2, sequence (P35968 20-1356, species assumed): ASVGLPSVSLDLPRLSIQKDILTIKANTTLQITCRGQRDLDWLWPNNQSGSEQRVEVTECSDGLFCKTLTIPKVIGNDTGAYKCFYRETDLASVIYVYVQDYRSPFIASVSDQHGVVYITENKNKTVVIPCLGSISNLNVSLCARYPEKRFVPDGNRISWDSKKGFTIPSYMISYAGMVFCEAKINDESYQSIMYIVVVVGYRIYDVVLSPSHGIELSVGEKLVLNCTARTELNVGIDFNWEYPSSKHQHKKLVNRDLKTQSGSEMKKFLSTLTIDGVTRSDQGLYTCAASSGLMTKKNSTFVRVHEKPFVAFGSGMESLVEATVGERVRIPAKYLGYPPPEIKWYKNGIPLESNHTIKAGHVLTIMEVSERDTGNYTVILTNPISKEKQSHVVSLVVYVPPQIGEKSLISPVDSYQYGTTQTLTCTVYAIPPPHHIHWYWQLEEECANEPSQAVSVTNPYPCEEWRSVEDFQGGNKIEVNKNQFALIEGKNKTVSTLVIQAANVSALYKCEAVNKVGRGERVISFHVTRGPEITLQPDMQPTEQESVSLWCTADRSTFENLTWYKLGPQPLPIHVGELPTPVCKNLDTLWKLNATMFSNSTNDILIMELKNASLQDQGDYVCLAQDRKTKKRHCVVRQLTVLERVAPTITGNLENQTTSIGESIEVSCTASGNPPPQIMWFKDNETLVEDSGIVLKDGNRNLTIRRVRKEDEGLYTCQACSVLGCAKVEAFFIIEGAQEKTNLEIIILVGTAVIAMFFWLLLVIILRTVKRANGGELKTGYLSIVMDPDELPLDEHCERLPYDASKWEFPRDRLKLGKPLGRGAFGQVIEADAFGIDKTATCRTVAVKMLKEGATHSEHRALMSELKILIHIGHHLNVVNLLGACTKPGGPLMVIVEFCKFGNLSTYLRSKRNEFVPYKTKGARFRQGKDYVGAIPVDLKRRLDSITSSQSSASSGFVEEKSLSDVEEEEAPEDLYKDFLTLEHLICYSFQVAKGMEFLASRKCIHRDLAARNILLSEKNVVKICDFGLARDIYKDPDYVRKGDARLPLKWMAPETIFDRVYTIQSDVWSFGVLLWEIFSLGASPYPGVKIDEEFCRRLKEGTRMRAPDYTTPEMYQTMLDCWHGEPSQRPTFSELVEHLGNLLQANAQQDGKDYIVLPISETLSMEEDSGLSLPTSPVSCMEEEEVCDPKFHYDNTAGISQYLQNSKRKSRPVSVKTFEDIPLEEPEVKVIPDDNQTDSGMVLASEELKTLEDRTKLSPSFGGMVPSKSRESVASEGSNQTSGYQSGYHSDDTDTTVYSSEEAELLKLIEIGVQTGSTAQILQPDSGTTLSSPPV

## CCN(CC)CCCCNc1ncc2cc(-c3cc(OC)cc(OC)c3)c(NC(=O)NC(C)(C)C)nc2n1 [PD173074]
[1]
  IC50: 100 to 200 nM

B1: WNT3A: WNT ligand (R&D Systems) added at 100 ng/ml (protein, UniProt P56704 19-352, looked up)
Protein Wnt-3a: SYPIWWSLAVGPQYSSLGSQPILCASIPGLVPKQLRFCRNYVEIMPSVAEGIKIGIQECQHQFRGRRWNCTTVHDSLAIFGPVLDKATRESAFVHAIASAGVAFAVTRSCAEGTAAICGCSSRHQGSPGKGWKWGGCSEDIEFGGMVSREFADARENRPDARSAMNRHNNEAGRQAIASHMHLKCKCHGLSGSCEVKTCWWSQPDFRAIGDFLKDKYDSASEMVVEKHRESRGWVETLRPRYTYFKVPTERDLVYYEASPNFCEPNPETGSFGTRDRTCNVSSHGIDGCDLLCCGRGHNARAERRREKCRCVFHWCCYVSCQECTRVYDVHTCK
[2]
  COL1A1 and COL10A1 staining/production: higher intensity
[3]
  GAG/DNA ratio: significantly decreased
[4]; 100 ng/ml WNT ligand + TGF-β3 vs TGF-β3 pellets
  COL2A1, COL1A1, and COL10A1 expression: increased
[5]
  percentage of CD146/CD166+ cells: increased

B2: WNT7B: WNT ligand (R&D system) added at 100 ng/ml (protein, UniProt P56706 25-349, looked up)
Protein Wnt-7b: ALSSVVALGANIICNKIPGLAPRQRAICQSRPDAIIVIGEGAQMGINECQYQFRFGRWNCSALGEKTVFGQELRVGSREAAFTYAITAAGVAHAVTAACSQGNLSNCGCDREKQGYYNQAEGWKWGGCSADVRYGIDFSRRFVDAREIKKNARRLMNLHNNEAGRKVLEDRMQLECKCHGVSGSCTTKTCWTTLPKFREVGHLLKEKYNAAVQVEVVRASRLRQPTFLRIKQLRSYQKPMETDLVYIEKSPNYCEEDAATGSVGTQGRLCNRTSPGADGCDTMCCGRGYNTHQYTKVWQCNCKFHWCCFVKCNTCSERTEVFTCK
[4]; 100 ng/ml WNT ligand + TGF-β3 vs TGF-β3 only
  chondrogenic markers (SOX9, ACAN, COL2A1) and osteogenic marker (COL1A1): significantly decreased
[4]; 100 ng/ml WNT ligand, relative to TGF-β3 pellets
  expression of MITF: significantly lower

— patent publication US20230295571A1, “COMPOSITIONS AND METHODS FOR STEM CELL CHONDROGENESIS” (Washington University, priority 2020, published 2023)
